From IntAct's records for PubMed 18001824

B1: E3 ubiquitin-protein ligase RNF8 (Homo sapiens), O76064 (parent)
chain: MGEPGFFVTGDRAGGRSWCLRRVGMSAGWLLLEDGCEVTVGRGFGVTYQLVSKICPLMISRNHCVLKQNPEGQWTIMDNKSLNGVWLNRARLEPLRVYSIHQGDYIQLGVPLENKENAEYEYEVTEEDWETIYPCLSPKNDQMIEKNKELRTKRKFSLDELAGPGAEGPSNLKSKINKVSCESGQPVKSQGKGEVASTPSDNLDPKLTALEPSKTTGAPIYPGFPKVTEVHHEQKASNSSASQRSLQMFKVTMSRILRLKIQMQEKHEAVMNVKKQTQKGNSKKVVQMEQELQDLQSQLCAEQAQQQARVEQLEKTFQEEEQHLQGLEIAQGEKDLKQQLAQALQEHWALMEELNRSKKDFEAIIQAKNKELEQTKEEKEKMQAQKEEVLSHMNDVLENELQCIICSEYFIEAVTLNCAHSFCSYCINEWMKRKIECPICRKDIKSKTYSLVLDNCINKMVNNLSSEVKERRIVLIRERKAKRLF

Variants of: B1
Details: with mdc1_human MDC1, Q14676
mdc1_human MDC1, Q14676, sequence (Q14676 whole entry): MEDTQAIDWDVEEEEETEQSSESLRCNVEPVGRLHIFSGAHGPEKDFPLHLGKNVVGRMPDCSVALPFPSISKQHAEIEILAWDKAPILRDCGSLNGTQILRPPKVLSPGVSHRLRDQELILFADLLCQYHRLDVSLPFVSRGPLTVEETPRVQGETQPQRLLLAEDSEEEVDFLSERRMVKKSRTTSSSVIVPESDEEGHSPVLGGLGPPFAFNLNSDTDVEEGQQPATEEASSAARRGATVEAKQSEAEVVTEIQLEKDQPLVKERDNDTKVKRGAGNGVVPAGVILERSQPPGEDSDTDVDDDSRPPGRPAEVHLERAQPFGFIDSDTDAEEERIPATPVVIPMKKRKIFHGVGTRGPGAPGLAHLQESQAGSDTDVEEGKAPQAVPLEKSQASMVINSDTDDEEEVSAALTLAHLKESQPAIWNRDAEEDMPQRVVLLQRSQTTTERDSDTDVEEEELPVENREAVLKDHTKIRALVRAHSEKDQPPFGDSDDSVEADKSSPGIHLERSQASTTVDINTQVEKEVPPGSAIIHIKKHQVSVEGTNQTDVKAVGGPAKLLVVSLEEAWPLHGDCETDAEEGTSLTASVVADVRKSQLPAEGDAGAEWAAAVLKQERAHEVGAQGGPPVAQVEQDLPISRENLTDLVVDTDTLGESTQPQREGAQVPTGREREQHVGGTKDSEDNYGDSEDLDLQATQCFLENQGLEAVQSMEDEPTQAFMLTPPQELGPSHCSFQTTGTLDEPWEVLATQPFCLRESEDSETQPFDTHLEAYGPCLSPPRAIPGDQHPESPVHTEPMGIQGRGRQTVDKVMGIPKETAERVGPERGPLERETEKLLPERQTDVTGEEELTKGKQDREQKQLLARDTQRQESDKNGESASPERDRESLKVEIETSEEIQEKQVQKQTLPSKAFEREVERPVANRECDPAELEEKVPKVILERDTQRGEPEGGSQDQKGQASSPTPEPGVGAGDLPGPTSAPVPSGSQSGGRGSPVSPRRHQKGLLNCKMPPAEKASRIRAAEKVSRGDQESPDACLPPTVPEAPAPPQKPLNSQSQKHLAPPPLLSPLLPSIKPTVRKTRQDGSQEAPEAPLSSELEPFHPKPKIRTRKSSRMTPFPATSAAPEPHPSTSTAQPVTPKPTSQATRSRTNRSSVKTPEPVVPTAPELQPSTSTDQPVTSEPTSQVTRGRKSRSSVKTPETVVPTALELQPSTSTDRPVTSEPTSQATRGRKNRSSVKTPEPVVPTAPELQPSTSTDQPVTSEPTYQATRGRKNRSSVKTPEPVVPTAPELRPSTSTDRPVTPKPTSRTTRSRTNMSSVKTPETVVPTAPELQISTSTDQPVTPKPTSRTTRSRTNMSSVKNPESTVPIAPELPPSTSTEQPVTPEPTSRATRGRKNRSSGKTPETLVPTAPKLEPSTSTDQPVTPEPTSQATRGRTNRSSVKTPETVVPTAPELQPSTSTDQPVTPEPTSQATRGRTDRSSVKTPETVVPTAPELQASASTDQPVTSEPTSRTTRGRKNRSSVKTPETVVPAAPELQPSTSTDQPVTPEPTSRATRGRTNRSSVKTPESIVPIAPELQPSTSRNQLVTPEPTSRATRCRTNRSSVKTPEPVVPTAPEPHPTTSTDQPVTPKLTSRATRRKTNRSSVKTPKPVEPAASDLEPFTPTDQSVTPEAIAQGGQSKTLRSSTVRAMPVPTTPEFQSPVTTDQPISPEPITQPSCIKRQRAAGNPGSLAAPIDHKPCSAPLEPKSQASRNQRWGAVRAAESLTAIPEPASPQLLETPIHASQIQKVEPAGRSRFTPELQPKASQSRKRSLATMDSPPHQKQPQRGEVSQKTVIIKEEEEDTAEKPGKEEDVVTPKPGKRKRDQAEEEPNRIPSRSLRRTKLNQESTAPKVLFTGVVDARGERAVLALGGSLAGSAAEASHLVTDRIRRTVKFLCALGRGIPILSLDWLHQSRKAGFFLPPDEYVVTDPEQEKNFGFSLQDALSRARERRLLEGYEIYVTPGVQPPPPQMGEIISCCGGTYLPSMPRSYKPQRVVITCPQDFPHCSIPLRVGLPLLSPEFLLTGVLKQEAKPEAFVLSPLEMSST

effect of a mutation on the interaction | Variant
disrupting interaction | R42A
